Reference: patent US20180088134A1

Tests used:
[1] = molecular target: non-mutated human leptin (human) (UniProt P41159); assay: receptor-Fc ELISA value divided by anti-leptin antibody ELISA value; sample 8, blood donor serum/plasma
[2] = molecular target: non-mutated human leptin (human) (UniProt P41159); assay: receptor-Fc ELISA value divided by anti-leptin antibody ELISA value; WHO standard 6 ng/ml
[3] = molecular target: non-mutated human leptin (human) (UniProt P41159); assay: receptor-Fc ELISA value divided by anti-leptin antibody ELISA value; sample 9, blood donor serum/plasma
[4] = molecular target: non-mutated human leptin (human) (UniProt P41159); assay: receptor-Fc ELISA value divided by anti-leptin antibody ELISA value; WHO standard 2 ng/ml
[5] = molecular target: non-mutated human leptin (human) (UniProt P41159); assay: receptor-Fc ELISA value divided by anti-leptin antibody ELISA value; sample 10, blood donor serum/plasma
[6] = molecular target: non-mutated human leptin (human) (UniProt P41159); assay: ELISA, plate-bound leptin receptor-Fc; sample 10, blood donor serum/plasma IDB-883-
[7] = molecular target: non-mutated human leptin (human) (UniProt P41159); assay: ELISA, plate-bound leptin receptor-Fc, detection with polyclonal anti-leptin; sample 1, HEK293 supernatant
[8] = molecular target: non-mutated human leptin (human) (UniProt P41159); assay: receptor-Fc ELISA value divided by anti-leptin antibody ELISA value; sample 1, HEK293 supernatant
[9] = molecular target: non-mutated human leptin (human) (UniProt P41159); assay: ELISA, plate-bound leptin receptor-Fc; sample 12, blood donor serum/plasma BB-3935
[10] = molecular target: non-mutated human leptin (human) (UniProt P41159); assay: ELISA, plate-bound leptin receptor-Fc; sample 4, purified recombinant leptin
[11] = molecular target: non-mutated human leptin (human) (UniProt P41159); assay: ELISA, plate-bound leptin receptor-Fc; sample 9, blood donor serum/plasma DO-2226
[12] = molecular target: non-mutated human leptin (human) (UniProt P41159); assay: receptor-Fc ELISA value divided by anti-leptin antibody ELISA value; sample 11, blood donor serum/plasma
[13] = molecular target: non-mutated human leptin (human) (UniProt P41159); assay: ELISA, plate-bound leptin receptor-Fc; sample 11, blood donor serum/plasma IDB-8960
[14] = molecular target: non-mutated human leptin (human) (UniProt P41159); assay: ELISA, plate-bound leptin receptor-Fc; sample 8, blood donor serum/plasma CS-2
[15] = molecular target: non-mutated human leptin (human) (UniProt P41159); assay: receptor-Fc ELISA value divided by anti-leptin antibody ELISA value; sample 12, blood donor serum/plasma
[16] = molecular target: non-mutated human leptin (human) (UniProt P41159); assay: ELISA, plate-bound leptin receptor-Fc; sample 6, WHO standard NIBSC 97/594, nominal 2 ng/ml
[17] = molecular target: non-mutated human leptin (human) (UniProt P41159); assay: ELISA, plate-bound leptin receptor-Fc; sample 7, WHO standard NIBSC 97/594, nominal 6 ng/ml

Chain of UniProt P41159 (P41159 22-167, change not shown): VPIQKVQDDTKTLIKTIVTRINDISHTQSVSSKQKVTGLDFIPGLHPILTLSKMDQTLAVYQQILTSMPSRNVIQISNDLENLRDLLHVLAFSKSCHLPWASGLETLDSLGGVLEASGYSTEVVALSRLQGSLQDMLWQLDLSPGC

Substance: Recombinant Human Leptin R Fc Chimera, Catalog Number 389-LR/CF, R & D Systems (amino acid sequence Thr20-Asp839 of the human leptin receptor) (from UniProt P48357 20-839) (Fc fusion)
- quotient of functional leptin and total leptin [1]: 1.14
- quotient of functional leptin and total leptin [2]: 0.99
- quotient of functional leptin and total leptin [3]: 0.91
- quotient of functional leptin and total leptin [4]: 0.99
- quotient of functional leptin and total leptin [5]: 0.87
- measured value functional leptin (concentration read from standard curve) [6]: 7.25 ng/mL
- measured value functional leptin (concentration read from standard curve) [7]: 490 ng/mL
- quotient of functional leptin and total leptin [8]: 0.85
- measured value functional leptin (concentration read from standard curve) [9]: 34.1 ng/mL
- measured value functional leptin (concentration read from standard curve) [10]: 278 µg/mL
- measured value functional leptin (concentration read from standard curve) [11]: 4.61 ng/mL
- quotient of functional leptin and total leptin [12]: 0.96
- measured value functional leptin (concentration read from standard curve) [13]: 24 ng/mL
- measured value functional leptin (concentration read from standard curve) [14]: 2.81 ng/mL
- quotient of functional leptin and total leptin [15]: 0.98
- measured value functional leptin (concentration read from standard curve) [16]: 1.83 ng/mL
- measured value functional leptin (concentration read from standard curve) [17]: 6.05 ng/mL
